The assay deals with goat anti-mouse kappa light chain IgG (Southern Biotech). Briefly: phage panning of 1:1 W100/R100 mixture on coated wells, oligonucleotide hybridization of plaque lifts.

As for “DB3 R100 VH/κ-gpVIII fusion polypeptide displayed on JC-M13-88 phage (from UniProt P69541 24-73) (scFv)”, the % DB3 R100 variant in DB3 phage eluted, 2 rounds of panning worked out at 82.1% and the % DB3 R100 variant in DB3 phage eluted, 3 rounds of panning is 79.2%.
